From patent US20090018029A1

How the values were obtained:
hIFN receptor = assay: BIAcore biosensor; orientation not stated
[1] = biological target: human growth hormone receptor on IM-9 cells (human) (UniProt P10912); assay: cell-based or functional assay
Chain of UniProt P10912 (P10912 19-638): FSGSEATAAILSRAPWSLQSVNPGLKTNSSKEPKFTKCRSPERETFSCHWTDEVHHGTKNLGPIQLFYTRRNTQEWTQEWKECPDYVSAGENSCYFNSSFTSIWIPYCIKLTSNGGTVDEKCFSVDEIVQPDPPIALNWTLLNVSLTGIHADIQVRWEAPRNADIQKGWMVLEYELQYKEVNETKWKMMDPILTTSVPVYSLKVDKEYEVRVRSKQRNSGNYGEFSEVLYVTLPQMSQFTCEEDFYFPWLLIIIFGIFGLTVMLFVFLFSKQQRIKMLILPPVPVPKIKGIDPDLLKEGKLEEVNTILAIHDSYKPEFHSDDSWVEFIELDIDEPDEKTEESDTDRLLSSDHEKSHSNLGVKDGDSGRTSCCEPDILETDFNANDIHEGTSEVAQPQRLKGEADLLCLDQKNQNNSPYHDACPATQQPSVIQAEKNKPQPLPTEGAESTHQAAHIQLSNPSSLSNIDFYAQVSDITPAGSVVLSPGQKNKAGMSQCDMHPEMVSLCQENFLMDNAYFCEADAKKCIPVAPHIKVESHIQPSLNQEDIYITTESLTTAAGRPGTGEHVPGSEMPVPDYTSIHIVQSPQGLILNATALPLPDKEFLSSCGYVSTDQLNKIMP

Substance	Kd (hIFN receptor) [µM]	EC50 of STAT5 phosphorylation in IM-9 cells (phospho-STAT5 MFI, flow cytometry) [1] [µM]
6His-L110pAF IFNα2A (from UniProt P01563 24-188) (ligand)	0.013	
6His-Y89pAF IFNα2A (from UniProt P01563 24-188) (ligand)	0.009	
Sigma IFNαA (from UniProt P01563 24-188) (ligand)	0.011	
6His-E96pAF IFNα2A (from UniProt P01563 24-188) (ligand)	0.012	
C1S E107pAF IFNα2A (from UniProt P01563 24-188) (ligand)	0.009	
6His-H34pAF IFNα2A (from UniProt P01563 24-188) (ligand)	0.004	
6His-Y122S IFNα2A (from UniProt P01563 24-188) (ligand)	0.3	
6His-IFNα2A (from UniProt P01563 24-188) (ligand)	0.006	
6His-K49pAF IFNα2A (from UniProt P01563 24-188) (ligand)	0.01	
6His-E159pAF IFNα2A (from UniProt P01563 24-188) (ligand)	0.0035	
6His-F38S IFNα2A (from UniProt P01563 24-188) (ligand)	0.042	
6His-L117pAF IFNα2A (from UniProt P01563 24-188) (ligand)	0.008	
rat growth hormone, wild type (from UniProt P01244 27-216) (ligand)		> 200
6His-F27pAF IFNα2A (from UniProt P01563 24-188) (ligand)	0.008	
6His-P39pAF IFNα2A (from UniProt P01563 24-188) (ligand)	0.017	
6His-I24pAF IFNα2A (from UniProt P01563 24-188) (ligand)	0.005	
6His-R12pAF IFNα2A (from UniProt P01563 24-188) (ligand)	0.008	
6His-T106pAF IFNα2A (from UniProt P01563 24-188) (ligand)	0.008	
6His-P109pAF IFNα2A (from UniProt P01563 24-188) (ligand)	0.017	
C1S IFNa2A (from UniProt P01563 24-188) (ligand)	0.011	
6His-I100pAF IFNα2A (from UniProt P01563 24-188) (ligand)	0.01	
6His-Q48pAF IFNα2A (from UniProt P01563 24-188) (ligand)	0.017	
6His-R120pAF IFNα2A (from UniProt P01563 24-188) (ligand)	0.004	
6His-K31pAF IFNα2A (from UniProt P01563 24-188) (ligand)	0.052	
6His-K134pAF IFNα2A (from UniProt P01563 24-188) (ligand)	0.01	
6His-R149pAF IFNα2A (from UniProt P01563 24-188) (ligand)	0.075	
6His-R125pAF IFNα2A (from UniProt P01563 24-188) (ligand)	0.019	
6His-G37pAF IFNα2A (from UniProt P01563 24-188) (ligand)	0.012	
6His-E113pAF IFNα2A (from UniProt P01563 24-188) (ligand)	0.019	
6His-E107pAF IFNα2A (from UniProt P01563 24-188) (ligand)	0.005	
